Results from US20080234175, “Process for Designing Inhibitors of Influenza Virus Structural Protein 1” (published 2008).

Tests used:
[1] = target: NS1A(1-73) RNA-binding domain of influenza A virus NS1 protein (Influenza A virus) (UniProt P03495); test: EMSA; conditions: CITED Wang 1999; 10-fold higher affinity than for 55-bp dsRNA; cited from earlier work
[2] = target: NS1A(1-73) RNA-binding domain of influenza A virus NS1 protein (Influenza A virus, UniProt P03495 P03495:1-73); test: sedimentation equilibrium, 25 C, 1:1 dimer:duplex; summarized as ~1 uM; conditions: tags: pET11a expression in E. coli BL21(DE3), no tag stated; chain copies: 2 (stated, homodimer); label: 5'-32P for gel shift; unlabeled otherwise
Sequence of NS1A(1-73) RNA-binding domain of influenza A virus NS1 protein (P03495 1-73, one chain of several): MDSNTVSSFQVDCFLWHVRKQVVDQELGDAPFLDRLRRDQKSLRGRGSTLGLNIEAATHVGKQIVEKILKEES

Sequence of NS1A(1-73) RNA-binding domain of influenza A virus NS1 protein (Influenza A virus) (P03495 1-73): as the sequence (P03495 1-73, one chain of several) above

Question: For 140-bp dsRNA, which binding signal [1] is on record?
Answer: 10 fold

B1: 16-bp dsRNA (RR) (dsRNA)
RNA 1: CCAUCCUCUACAGGCG
RNA 2: CGCCUGUAGAGGAUGG
Question: Which Kd [2] does the source give for B1 here?
Answer: 748 nM
